Results reported in the Human Domainome abundance scans (Beltran et al. 2025).
± gives the uncertainty stated by the source.

B1: SH3 and PX domain-containing protein 2B, residues 155 to 209; numbered along this chain, A1X283 (parent)
chain: EQYVVVANYQKQESSEISLSVGQVVDIIEKNESGWWFVSTAEEQGWVPATCLEGQ

Variants of: B1
Assay: abundance fitness (aPCA) (normalised: wild type 0, dead -1); higher = more abundant; growth selection in yeast, the domain comes from the species named
Settings: Homo sapiens

Abundance fitness of substitutions, site by site:
D26: V -0.179 ± 0.074; Y -0.272 ± 0.18
K30: R -0.049 ± 0.077; F -0.357 ± 0.11; Q -0.027 ± 0.15; E -0.17 ± 0.14; L -0.548 ± 0.16; G -0.398 ± 0.08; V -0.273 ± 0.076; I -0.276 ± 0.14; W -0.58 ± 0.16; Y 0.029 ± 0.28; P -0.495 ± 0.15; T -0.008 ± 0.15; D -0.767 ± 0.18
N31: W -0.367 ± 0.12; C 0.035 ± 0.087; R -0.007 ± 0.072; H -0.095 ± 0.13; E -0.122 ± 0.094; V -0.158 ± 0.08; Q -0.188 ± 0.17; M -0.009 ± 0.1; F -0.259 ± 0.12; D -0.116 ± 0.077; K -0.028 ± 0.13; L -0.092 ± 0.083; Y -0.255 ± 0.11; T -0.154 ± 0.1; I -0.401 ± 0.11; P -0.194 ± 0.1; A -0.114 ± 0.075
S39: P -0.864 ± 0.23; I -0.297 ± 0.11; K -0.035 ± 0.13; M -0.018 ± 0.11; E 0.013 ± 0.093; F -0.241 ± 0.1; L -0.329 ± 0.085; T -0.039 ± 0.095; Y -0.312 ± 0.14; R -0.009 ± 0.058; W -0.371 ± 0.09; C -0.022 ± 0.11; A -0.08 ± 0.083; V -0.414 ± 0.1; G -0.107 ± 0.06; D -0.113 ± 0.11; N -0.022 ± 0.14
Q44: A -0.187 ± 0.1; D -0.14 ± 0.11; S -0.136 ± 0.074; V -0.225 ± 0.1; M -0.122 ± 0.13; T -0.101 ± 0.11; L -0.337 ± 0.089; G -0.151 ± 0.061; P -0.807 ± 0.22; R 0.001 ± 0.06; Y -0.376 ± 0.19; K -0.106 ± 0.12; F -0.207 ± 0.19; H -0.085 ± 0.18; C -0.216 ± 0.13; I -0.208 ± 0.28; E -0.143 ± 0.12
G45: T -0.683 ± 0.12; R -0.723 ± 0.085; V -0.7 ± 0.088; N -0.95 ± 0.43; D -0.964 ± 0.18; M -0.632 ± 0.13; C -0.779 ± 0.14; Q -0.734 ± 0.15; P -1.19 ± 0.26; S -0.965 ± 0.11; I -0.643 ± 0.17; F -0.744 ± 0.14; L -0.444 ± 0.085; A -0.604 ± 0.11; K -0.547 ± 0.15; W -0.919 ± 0.19; H -0.815 ± 0.35; E -1.21 ± 0.2
T40: C -0.201 ± 0.12; K -0.035 ± 0.11; H -0.15 ± 0.16; S 0.015 ± 0.075; I -0.121 ± 0.11; A -0.124 ± 0.07; V -0.042 ± 0.061; L -0.031 ± 0.071; Q 0.063 ± 0.11; D -0.234 ± 0.099; F 0.02 ± 0.11; M -0.065 ± 0.14; P -0.699 ± 0.14; E -0.337 ± 0.095; N -0.137 ± 0.17; G -0.19 ± 0.059; W -0.354 ± 0.098; Y -0.151 ± 0.18
W36: I -0.139 ± 0.16; A -0.104 ± 0.084; F 0.083 ± 0.1; Q -0.71 ± 0.12; N -0.367 ± 0.17; R -0.462 ± 0.084; K -0.889 ± 0.27; M -0.202 ± 0.13; D -0.403 ± 0.096; S -0.211 ± 0.079; L -0.2 ± 0.078; V 0.009 ± 0.072; Y -0.099 ± 0.11; C -0.11 ± 0.13; G -0.767 ± 0.085; T -0.234 ± 0.098; H -0.429 ± 0.17
A41: D -0.273 ± 0.13; M -0.084 ± 0.11; Q -0.133 ± 0.15; I 0.045 ± 0.22; S 0.034 ± 0.073; V -0.127 ± 0.07; W -0.376 ± 0.1; F -0.113 ± 0.15; E 0.069 ± 0.093; N -0.244 ± 0.14; L -0.041 ± 0.071; K -0.157 ± 0.11; H -0.009 ± 0.1; T 0.015 ± 0.078; G -0.122 ± 0.077
E32: Q 0.001 ± 0.12; V 0.038 ± 0.082; C -0.152 ± 0.11; K -0.326 ± 0.13; Y -0.345 ± 0.15; M -0.188 ± 0.11; T -0.122 ± 0.16; N -0.078 ± 0.15; I -0.066 ± 0.19; P -0.084 ± 0.083; D -0.047 ± 0.09; H -0.139 ± 0.13; R -0.108 ± 0.064; W -0.353 ± 0.1; A 0.027 ± 0.075; G 0.001 ± 0.061; S -0.07 ± 0.071
I28: T -0.116 ± 0.11; E -0.475 ± 0.13; R -0.211 ± 0.073; S -0.337 ± 0.087; F -0.214 ± 0.12; M -0.125 ± 0.12; P -0.822 ± 0.19; L -0.041 ± 0.11; G -0.211 ± 0.059; D -0.451 ± 0.1; H -0.052 ± 0.23; K -0.008 ± 0.14; C -0.13 ± 0.2; V 0.027 ± 0.073; N -0.229 ± 0.17; Y -0.462 ± 0.21
